± gives the standard error. Fewer inactive variants are shown than the library holds.
B1: glmS ribozyme (parent)
chain: AUAAAAGCGCCAGAACUACAGAAAUGUAGUUGACGAGGAGGAGGUUUAUCGAAUUUUCGGCGGAUGCCUCCAAA

What was measured:
Conditions in all cases: with glucosamine-6-phosphate
glucosamine-6-phosphate [1] = variants of: B1; assay: self-cleavage kobs at 40 uM GlcN6P; higher = faster cleavage; RNA array
Summary of the method: (§1)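 A hybridised Cy3 probe tracked barcoded ribozyme variants, transcribed in situ by E. coli RNA polymerase on sequenced MiSeq chips, at 37 °C. The variants received 40 μM to 10 mM glucosamine-6-phosphate in HEPES/KCl/Mg(OAc)2 buffer. kobs came from decay fits and kcat and KM from weighted Michaelis–Menten fits.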

glucosamine-6-phosphate [2] = variants of: B1; assay: self-cleavage kobs at 160 uM GlcN6P; higher = faster cleavage; RNA array
Summary of the method: as §1

glucosamine-6-phosphate [3] = variants of: B1; assay: self-cleavage kobs at 640 uM GlcN6P; higher = faster cleavage; RNA array
Summary of the method: as §1

glucosamine-6-phosphate [4] = variants of: B1; assay: self-cleavage kobs at 2500 uM GlcN6P; higher = faster cleavage; RNA array
Summary of the method: as §1

glucosamine-6-phosphate [5] = variants of: B1; assay: self-cleavage kobs at 10000 uM GlcN6P; higher = faster cleavage; RNA array
Summary of the method: as §1

Variant	self-cleavage kobs at 40 uM GlcN6P (glucosamine-6-phosphate [1])	self-cleavage kobs at 160 uM GlcN6P (glucosamine-6-phosphate [2])	self-cleavage kobs at 640 uM GlcN6P (glucosamine-6-phosphate [3])	self-cleavage kobs at 2500 uM GlcN6P (glucosamine-6-phosphate [4])	self-cleavage kobs at 10000 uM GlcN6P (glucosamine-6-phosphate [5])
AUAAAAGCGCCAGGUCUACAGAAAUGUAGUUGACGAGGAGGAGGUUUAUCGAAUUUUCGGCGGAUGCCUCCAAA	0.00111 ± 0.00019 s⁻¹	0.000722 ± 0.00014 s⁻¹	0.00751 ± 0.0013 s⁻¹	0.00555 ± 0.0014 s⁻¹	0.0592 ± 0.021 s⁻¹
AUAAAAGCGCCAGAACUACAGAAAUGUAGUUGACGAGGAGGAGGUUCAUCGAAUUUUCGGCAGAUGCCUCCAAA	< 1e-05 s⁻¹	–	–	–	< 1e-05 s⁻¹
AUAAAAGCGCCAGAACUACAGAAAUGUAGUUGACGAGGAGGAGGGUUAUCGAAUUUUCGUCGGAUGUCUACAAA	< 1e-05 s⁻¹	–	< 1e-05 s⁻¹	–	< 1e-05 s⁻¹
AUAAAAGCCCCAGAACUACAGAAAUGUAGUUGACGAGGAGGAGGUUUAUCGAAUUUUCGGCAGAUGCCUCCAAA	< 1e-05 s⁻¹	–	< 1e-05 s⁻¹	–	< 1e-05 s⁻¹
AUAAAAGGGCCAGAUCUACAGAAAUGUAGUUGACGAGGAGGAGGUUUAUCGAAUUUUCGGCGGAUGCCUCCAAA	< 1e-05 s⁻¹	< 1e-05 s⁻¹	< 1e-05 s⁻¹	< 1e-05 s⁻¹	< 1e-05 s⁻¹
AUAAAAGAGCCAGAACUACAGAAAUGUAGUUGACGAGGAGGAGGUUUAUGGAUUUUUCGGCGGAUGUCUCCAAA	0.000239 ± 5.6e-05 s⁻¹	–	0.000168 ± 5.7e-05 s⁻¹	0.000626 ± 0.00028 s⁻¹	0.000304 ± 5e-05 s⁻¹
AUAAAGGCGCCUGAACUACAGAAAUGUAGUUGACGAGGAGGAGGUUUAUCGAAUUUUCGGCGGAUACCUCCAAA	< 1e-05 s⁻¹	–	–	0.000132 ± 3.5e-05 s⁻¹	7.44e-05 ± 2.2e-05 s⁻¹
AUAAACGCGCCAGAACUACAGAAAUGUAGUUGACGAGGAGGAGGUUUCUCGAAUUUUCGGCGGAUGCCUCCAAA	< 1e-05 s⁻¹	< 1e-05 s⁻¹	< 1e-05 s⁻¹	< 1e-05 s⁻¹	< 1e-05 s⁻¹
AUAAAAGCGCCAGAACUACAGAAAUGUAGUUGACGAGGAGGAGGUUUAUCUAAUUUUCAGCGGAUGCCUCCAAA	< 1e-05 s⁻¹	–	–	–	< 1e-05 s⁻¹
AUAAAAGCGCCAGAACUACAGAAAUGUAGUUGACGAGAAGAAGGUUUAUCGAAUUUUCGGCGGAUGCCUCCAAA	< 1e-05 s⁻¹	< 1e-05 s⁻¹	< 1e-05 s⁻¹	< 1e-05 s⁻¹	< 1e-05 s⁻¹
AUAAAAGCGCCAGAGCUACAGAAAUGUAGUUGACGAGGAGGAGGUUUAUAGAAUUUUCGGCGGAUGCCUCCAAA	< 1e-05 s⁻¹	–	–	–	3.83e-05 ± 1.4e-05 s⁻¹
AUAAAAGCCCCAGAACUACAGAAAUGUAGUUGACGAGUAGGAGGUUUAUCGAAUUUUCGGCGAAUGCCUCCAAA	< 1e-05 s⁻¹	–	–	–	–
ACAAAACCGCCAGAACUACAGAAAUGUAGUUGACGAGGAGGGGGUUUAUCGAAUUAUCGGAGGAUGCCUCCAAA	< 1e-05 s⁻¹	–	–	–	< 1e-05 s⁻¹
AUAAAAGCGCCAGACAUACAGAAAUGUAGUGGACGGGGGGGCGGUUUAUCGAAUUUUCGGCGGAUGCCUCCAAA	< 1e-05 s⁻¹	–	–	< 1e-05 s⁻¹	–
AUAAAAGCGCCAGAACUACAGAAAUGUAGUUGACGGGGAGGAGGUUUAUCGAAUUUUAGGCGGAUGCCUCCAAA	< 1e-05 s⁻¹	–	–	< 1e-05 s⁻¹	< 1e-05 s⁻¹
AUAAAAGCGCCAAAACUACAGAAAUGUAGUUGACGAGGAGGAGGUUUAUCGAAUUUUCGGGGGAUGCAUUCAAA	< 1e-05 s⁻¹	–	–	–	–
AUAAAAGCGCCAGAGCUACAGAAAUGUAGUUGACAAGGAGGAGGUUUAUCGAAUUUUCGGCGGAUGCCUCCAAA	< 1e-05 s⁻¹	< 1e-05 s⁻¹	–	–	< 1e-05 s⁻¹
AUAAAAGCGCCAGAACUACAGAAAUGUAGUUGACGAGGAGGAGGUUUAUCGAAUUUUCGGCGGAUGCGUCGAAA	2.7e-05 ± 1.3e-05 s⁻¹	7.77e-05 ± 1.5e-05 s⁻¹	8.75e-05 ± 2.3e-05 s⁻¹	9.89e-05 ± 1.7e-05 s⁻¹	–
AUAAAGGAGCCAGAACUACAGAAAUGUAGUUGACGAGGAGGAGGUUUAUCGAAUUUUUGGCGGAUGCCUCCAAA	< 1e-05 s⁻¹	–	–	–	< 1e-05 s⁻¹
AUAAAAGCGCCAGAACUACAGAAAUGUAGUUGACGAGGAGGAGGUUUAUGGAAUUUUGGGCGGAUGCCUCCAAA	8.56e-05 ± 1.3e-05 s⁻¹	0.000155 ± 2.6e-05 s⁻¹	0.000235 ± 5.2e-05 s⁻¹	6.82e-05 ± 1.8e-05 s⁻¹	–
AUAAAAACGCCAGAACUACAGAAAUGUAAUUGACGAGGAGGAGGUUUAUCGAAUCUUCGUCGGAUGCCUCCAAA	< 1e-05 s⁻¹	–	–	< 1e-05 s⁻¹	–
AUAAAAGCGUCAGAACUACAGAAAUGUAUUUGAAGAGGAGGAGGUUUAUCGAAUUUUCGGCGGAUGCCUCCAAA	< 1e-05 s⁻¹	–	–	< 1e-05 s⁻¹	< 1e-05 s⁻¹
AUAAAAGCGCCAUAACUACAGAAAUGUAGUUGACGAGGAGGAGGUUUAUGGAAUUUUCGGCGGAUGCCUGCAAA	7.6e-05 ± 2.2e-05 s⁻¹	0.000214 ± 5.6e-05 s⁻¹	8.28e-05 ± 1.7e-05 s⁻¹	0.000166 ± 3.6e-05 s⁻¹	6.1e-05 ± 1.2e-05 s⁻¹
AUAAAAGCGCGAGAACUACAGAAAUGUAGUUGACGAGGAGGAGUUUUAUCGAAUUUUCGGCGGAUGCCUCCAAA	< 1e-05 s⁻¹	–	< 1e-05 s⁻¹	–	< 1e-05 s⁻¹

From the supplement of paper PMC7125110
